Patent US20070003982

What was measured:
[1] = target: full length αII-spectrin, rat (UniProt P16086)
[2] = target: full length αII-spectrin, rat, P16086

Q: For purified porcine calpain-2, which “αII-spectrin fragmentation patterns (Western blot after in vitro digestion of rat brain cortex lysate)” value [1] is on record?
A: calpain-produced SBDP150

B1: purified recombinant human caspase-3 (protein)
chain: SGISLDNSYKMDYPEMGLCIIINNKNFHKSTGMTSRSGTDVDAANLRETFRNLKYEVRNKNDLTREEIVELMRDVSKEDHSKRSSFVCVLLSHGEEGIIFGTNGPVDLKKITNFFRGDRCRSLTGKPKLFIIQACRGTELDCGIETDSGVDDDMACHKIPVEADFLYAYSTAPGYYSWRNSKDGSWFIQSLCAMLKQYADKLEFMHILTRVNRKVATEFESFSFDATFHAKKQIPCIVSMLTKELYFYH
Q: With B1 as the molecule, how does the “αII-spectrin fragmentation patterns (Western blot after in vitro digestion of rat brain cortex lysate)” value [2] read?
A: Caspase-3-produced SBP150i
